Drawing on the supplement of paper PMC11811203, this text covers THAP1 transcriptional activity for 28 variants.

B1: THAP1; numbered along this chain (parent)
chain: MVQSCSAYGCKNRYDKDKPVSFHKFPLTRPSLCKEWEAAVRRKNFKPTKYSSICSEHFTPDCFKRECNNKLLKENAVPTIFLCTEPHDKKEDLLEPQEQLPPPPLPPPVSQVDAAIGLLMPPLQTPVNLSVFCDHNYTVEDTMHQRKRIHQLEQQVEKLRKKLKTAQQRCRRQERQLEKLKEVVHFQKEKDDVSERGYVILPNDYFEIVEVPA

Variants of B1 are the subject of this series. Description: THAP1 transcriptional activity (GFP+/GFP- enrichment relative to wild-type constructs) (ratio to WT); higher = more THAP1 activity (PSMB5 reporter activation). The settings on record: with PSMB5 promoter-GFP reporter. The method in brief:
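Variants were counted by Illumina sequencing of genomic DNA amplicons from BFP+ cells sorted into GFP-bright and GFP-dim bins five days after lentiviral transduction, in duplicate at MOI ~0.3. The library changed each of residues 2–213 of human THAP1 to all 20 amino acids and was introduced into THAP1-knockout HEK-293T cells with mClover3 knocked in at endogenous PSMB5. Activity equals the replicate-mean bright/dim read fold change over the mean of wild-type synonymous constructs.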
For MVQSCSAYGCKNRYDKDKPVSFHKFPLTRPSLCKEWEAAVRRKNFKPTKYSSICSEHFTPDCFKRECNNKLLKENAVPTIFLCTEPHDKKEDLLEPQEQLPPPPLPPPVSQVDAAIGLLMPPLQTPVNLSVFCDHNYTVEDTMHQRKRIHQLEQQVEKLRKKLKTAQQRCRRQERQLEKLPEVVHFQKEKDDVSERGYVILPNDYFEIVEVPA [K181P], the THAP1 transcriptional activity turned out to be 0.152.
As for MVQSCSAYGCKNRYDKDKPVSFHKFPLTRPSLCKEWEAAVRRKNFKPTKYSSICSEHFTPDCFKRECNNKLLKENAVPTIFLCTEPHDKKEDLLEPQEQLPPPPLPPPVSQVDAAIGLLMPPLQTPVNLSVFCDHNYTVEDTMHQRKRIHQLEQQVEKLRKKLKTAQQRCRRQERQLEKLTEVVHFQKEKDDVSERGYVILPNDYFEIVEVPA [K181T], the figure is 0.491; as for MVQSCSAYGCKNRYDKDKPVSFHKFPLTRPSLCKEWEAAVRRKNFKPTKYSSICSEHFTPDCFKRECNNKLLKENAVPTIFLCTEPHDKKEDLLEPQEQLPPPPLPPPVSQVDAAIGLLMPPLQTPVNLSVFCDHNYTVEDTMHQRKRIHQLEQQVEKLRKKLKTAQQRCRRQERQLEKLLEVVHFQKEKDDVSERGYVILPNDYFEIVEVPA [K181L], 0.421; as for MVQSCSAYGCKNRYDKDKPVSFHKFPLTRPSLCKEWEAAVRRKNFKPTKYSSICSEHFTPDCFKRECNNKLLKENAVPTIFLCTEPHDKKEDLLEPQEQLPPPPLPPPVSQVDAAIGLLMPPLQTPVNLSVFCDHNYTVEDTMHQRKRIHQLEQQVEKLRKKLKTAQQRCRRQERQLEKLMEVVHFQKEKDDVSERGYVILPNDYFEIVEVPA [K181M], 0.542.
As for MVQSCSAYGCKNRYDKDKPVSFHKFPLTRPSLCKEWEAAVRRKNFKPTKYSSICSEHFTPDCFKRECNNKLLKENAVPTIFLCTEPHDKKEDLLEPQEQLPPPPLPPPVSQVDAAIGLLMPPLQTPVNLSVFCDHNYTVEDTMHQRKRIHQLEQQVEKLRKKLKTAQQRCRRQERQLEKLHEVVHFQKEKDDVSERGYVILPNDYFEIVEVPA [K181H], the figure is 0.478; as for MVQSCSAYGCKNRYDKDKPVSFHKFPLTRPSLCKEWEAAVRRKNFKPTKYSSICSEHFTPDCFKRECNNKLLKENAVPTIFLCTEPHDKKEDLLEPQEQLPPPPLPPPVSQVDAAIGLLMPPLQTPVNLSVFCDHNYTVEDTMHQRKRIHQLEQQVEKLRKKLKTAQQRCRRQERQLEKLVEVVHFQKEKDDVSERGYVILPNDYFEIVEVPA [K181V], 0.316; as for MVQSCSAYGCKNRYDKDKPVSFHKFPLTRPSLCKEWEAAVRRKNFKPTKYSSICSEHFTPDCFKRECNNKLLKENAVPTIFLCTEPHDKKEDLLEPQEQLPPPPLPPPVSQVDAAIGLLMPPLQTPVNLSVFCDHNYTVEDTMHQRKRIHQLEQQVEKLRKKLKTAQQRCRRQERQLEKLREVVHFQKEKDDVSERGYVILPNDYFEIVEVPA [K181R], 0.964.
As for MVQSCSAYGCKNRYDKDKPVSFHKFPLTRPSLCKEWEAAVRRKNFKPTKYSSICSEHFTPDCFKRECNNKLLKENAVPTIFLCTEPHDKKEDLLEPQEQLPPPPLPPPVSQVDAAIGLLMPPLQTPVNLSVFCDHNYTVEDTMHQRKRIHQLEQQVEKLRKKLKTAQQRCRRQERQLEKLWEVVHFQKEKDDVSERGYVILPNDYFEIVEVPA [K181W], the figure is 0.418.
With MVQSCSAYGCKNRYDKDKPVSFHKFPLTRPSLCKEWEAAVRRKNFKPTKYSSICSEHFTPDCFKRECNNKLLKENAVPTIFLCTEPHDKKEDLLEPQEQLPPPPLPPPVSQVDAAIGLLMPPLQTPVNLSVFCDHNYTVEDTMHQRKRIHQLEQQVEKLRKKLKTAQQRCRRQERQLEKLGEVVHFQKEKDDVSERGYVILPNDYFEIVEVPA [K181G], the THAP1 transcriptional activity amounted to 0.53.
The value for MVQSCSAYGCKNRYDKDKPVSFHKFPLTRPSLCKEWEAAVRRKNFKPTKYSSICSEHFTPDCFKRECNNKLLKENAVPTIFLCTEPHDKKEDLLEPQEQLPPPPLPPPVSQVDAAIGLLMPPLQTPVNLSVFCDHNYTVEDTMHQRKRIHQLEQQVEKLRKKLKTAQQRCRRQERQLEKLDEVVHFQKEKDDVSERGYVILPNDYFEIVEVPA [K181D] was 0.296.
The value for MVQSCSAYGCKNRYDKDKPVSFHKFPLTRPSLCKEWEAAVRRKNFKPTKYSSICSEHFTPDCFKRECNNKLLKENAVPTIFLCTEPHDKKEDLLEPQEQLPPPPLPPPVSQVDAAIGLLMPPLQTPVNLSVFCDHNYTVEDTMHQRKRIHQLEQQVEKLRKKLKTAQQRCRRQERQLEKLSEVVHFQKEKDDVSERGYVILPNDYFEIVEVPA [K181S] was 0.298; that for MVQSCSAYGCKNRYDKDKPVSFHKFPLTRPSLCKEWEAAVRRKNFKPTKYSSICSEHFTPDCFKRECNNKLLKENAVPTIFLCTEPHDKKEDLLEPQEQLPPPPLPPPVSQVDAAIGLLMPPLQTPVNLSVFCDHNYTVEDTMHQRKRIHQLEQQVEKLRKKLKTAQQRCRRQERQLEKLCEVVHFQKEKDDVSERGYVILPNDYFEIVEVPA [K181C] was 0.297; that for MVQSCSAYGCKNRYDKDKPVSFHKFPLTRPSLCKEWEAAVRRKNFKPTKYSSICSEHFTPDCFKRECNNKLLKENAVPTIFLCTEPHDKKEDLLEPQEQLPPPPLPPPVSQVDAAIGLLMPPLQTPVNLSVFCDHNYTVEDTMHQRKRIHQLEQQVEKLRKKLKTAQQRCRRQERQLEKLYEVVHFQKEKDDVSERGYVILPNDYFEIVEVPA [K181Y] was 0.36.
As for MVQSCSAYGCKNRYDKDKPVSFHKFPLTRPSLCKEWEAAVRRKNFKPTKYSSICSEHFTPDCFKRECNNKLLKENAVPTIFLCTEPHDKKEDLLEPQEQLPPPPLPPPVSQVDAAIGLLMPPLQTPVNLSVFCDHNYTVEDTMHQRKRIHQLEQQVEKLRKKLKTAQQRCRRQERQLEKLQEVVHFQKEKDDVSERGYVILPNDYFEIVEVPA [K181Q], the figure is 0.514; as for MVQSCSAYGCKNRYDKDKPVSFHKFPLTRPSLCKEWEAAVRRKNFKPTKYSSICSEHFTPDCFKRECNNKLLKENAVPTIFLCTEPHDKKEDLLEPQEQLPPPPLPPPVSQVDAAIGLLMPPLQTPVNLSVFCDHNYTVEDTMHQRKRIHQLEQQVEKLRKKLKTAQQRCRRQERQLEKLNEVVHFQKEKDDVSERGYVILPNDYFEIVEVPA [K181N], 0.511; as for MVQSCSAYGCKNRYDKDKPVSFHKFPLTRPSLCKEWEAAVRRKNFKPTKYSSICSEHFTPDCFKRECNNKLLKENAVPTIFLCTEPHDKKEDLLEPQEQLPPPPLPPPVSQVDAAIGLLMPPLQTPVNLSVFCDHNYTVEDTMHQRKRIHQLEQQVEKLRKKLKTAQQRCRRQERQLEKLEEVVHFQKEKDDVSERGYVILPNDYFEIVEVPA [K181E], 0.582.
For the variant MVQSCSAYGCKNRYDKDKPVSFHKFPLTRPSLCKEWEAAVRRKNFKPTKYSSICSEHFTPDCFKRECNNKLLKENAVPTIFLCTEPHDKKEDLLEPQEQLPPPPLPPPVSQVDAAIGLLMPPLQTPVNLSVFCDHNYTVEDTMHQRKRIHQLEQQVEKLRKKLKTAQQRCRRQERQLEKMKEVVHFQKEKDDVSERGYVILPNDYFEIVEVPA [L180M], the THAP1 transcriptional activity came to 0.868.
The value for MVQSCSAYGCKNRYDKDKPVSFHKFPLTRPSLCKEWEAAVRRKNFKPTKYSSICSEHFTPDCFKRECNNKLLKENAVPTIFLCTEPHDKKEDLLEPQEQLPPPPLPPPVSQVDAAIGLLMPPLQTPVNLSVFCDHNYTVEDTMHQRKRIHQLEQQVEKLRKKLKTAQQRCRRQERQLEKYKEVVHFQKEKDDVSERGYVILPNDYFEIVEVPA [L180Y] was 0.439.
The value for MVQSCSAYGCKNRYDKDKPVSFHKFPLTRPSLCKEWEAAVRRKNFKPTKYSSICSEHFTPDCFKRECNNKLLKENAVPTIFLCTEPHDKKEDLLEPQEQLPPPPLPPPVSQVDAAIGLLMPPLQTPVNLSVFCDHNYTVEDTMHQRKRIHQLEQQVEKLRKKLKTAQQRCRRQERQLEKPKEVVHFQKEKDDVSERGYVILPNDYFEIVEVPA [L180P] was 0.166.
The value for MVQSCSAYGCKNRYDKDKPVSFHKFPLTRPSLCKEWEAAVRRKNFKPTKYSSICSEHFTPDCFKRECNNKLLKENAVPTIFLCTEPHDKKEDLLEPQEQLPPPPLPPPVSQVDAAIGLLMPPLQTPVNLSVFCDHNYTVEDTMHQRKRIHQLEQQVEKLRKKLKTAQQRCRRQERQLEKIKEVVHFQKEKDDVSERGYVILPNDYFEIVEVPA [L180I] was 0.806; that for MVQSCSAYGCKNRYDKDKPVSFHKFPLTRPSLCKEWEAAVRRKNFKPTKYSSICSEHFTPDCFKRECNNKLLKENAVPTIFLCTEPHDKKEDLLEPQEQLPPPPLPPPVSQVDAAIGLLMPPLQTPVNLSVFCDHNYTVEDTMHQRKRIHQLEQQVEKLRKKLKTAQQRCRRQERQLEKQKEVVHFQKEKDDVSERGYVILPNDYFEIVEVPA [L180Q] was 0.399; that for MVQSCSAYGCKNRYDKDKPVSFHKFPLTRPSLCKEWEAAVRRKNFKPTKYSSICSEHFTPDCFKRECNNKLLKENAVPTIFLCTEPHDKKEDLLEPQEQLPPPPLPPPVSQVDAAIGLLMPPLQTPVNLSVFCDHNYTVEDTMHQRKRIHQLEQQVEKLRKKLKTAQQRCRRQERQLEKWKEVVHFQKEKDDVSERGYVILPNDYFEIVEVPA [L180W] was 0.575.
Regarding MVQSCSAYGCKNRYDKDKPVSFHKFPLTRPSLCKEWEAAVRRKNFKPTKYSSICSEHFTPDCFKRECNNKLLKENAVPTIFLCTEPHDKKEDLLEPQEQLPPPPLPPPVSQVDAAIGLLMPPLQTPVNLSVFCDHNYTVEDTMHQRKRIHQLEQQVEKLRKKLKTAQQRCRRQERQLEKNKEVVHFQKEKDDVSERGYVILPNDYFEIVEVPA [L180N], the THAP1 transcriptional activity turned out to be 0.473.
The value for MVQSCSAYGCKNRYDKDKPVSFHKFPLTRPSLCKEWEAAVRRKNFKPTKYSSICSEHFTPDCFKRECNNKLLKENAVPTIFLCTEPHDKKEDLLEPQEQLPPPPLPPPVSQVDAAIGLLMPPLQTPVNLSVFCDHNYTVEDTMHQRKRIHQLEQQVEKLRKKLKTAQQRCRRQERQLEKSKEVVHFQKEKDDVSERGYVILPNDYFEIVEVPA [L180S] was 0.482; that for MVQSCSAYGCKNRYDKDKPVSFHKFPLTRPSLCKEWEAAVRRKNFKPTKYSSICSEHFTPDCFKRECNNKLLKENAVPTIFLCTEPHDKKEDLLEPQEQLPPPPLPPPVSQVDAAIGLLMPPLQTPVNLSVFCDHNYTVEDTMHQRKRIHQLEQQVEKLRKKLKTAQQRCRRQERQLEKRKEVVHFQKEKDDVSERGYVILPNDYFEIVEVPA [L180R] was 0.417; that for MVQSCSAYGCKNRYDKDKPVSFHKFPLTRPSLCKEWEAAVRRKNFKPTKYSSICSEHFTPDCFKRECNNKLLKENAVPTIFLCTEPHDKKEDLLEPQEQLPPPPLPPPVSQVDAAIGLLMPPLQTPVNLSVFCDHNYTVEDTMHQRKRIHQLEQQVEKLRKKLKTAQQRCRRQERQLEKKKEVVHFQKEKDDVSERGYVILPNDYFEIVEVPA [L180K] was 0.367.
The value for MVQSCSAYGCKNRYDKDKPVSFHKFPLTRPSLCKEWEAAVRRKNFKPTKYSSICSEHFTPDCFKRECNNKLLKENAVPTIFLCTEPHDKKEDLLEPQEQLPPPPLPPPVSQVDAAIGLLMPPLQTPVNLSVFCDHNYTVEDTMHQRKRIHQLEQQVEKLRKKLKTAQQRCRRQERQLEKVKEVVHFQKEKDDVSERGYVILPNDYFEIVEVPA [L180V] was 0.58.
As for MVQSCSAYGCKNRYDKDKPVSFHKFPLTRPSLCKEWEAAVRRKNFKPTKYSSICSEHFTPDCFKRECNNKLLKENAVPTIFLCTEPHDKKEDLLEPQEQLPPPPLPPPVSQVDAAIGLLMPPLQTPVNLSVFCDHNYTVEDTMHQRKRIHQLEQQVEKLRKKLKTAQQRCRRQERQLEKLKAVVHFQKEKDDVSERGYVILPNDYFEIVEVPA [E182A], the figure is 0.871.
